Reference: US11773160 (ANAVEON, dated 2023)

Key:
Recombinant human IL-2 [1] = target: T1, Recombinant human IL-2 (human, UniProt P60568 21-153); assay: Octet BLI, antibody immobilised on amine reactive sensors, IL-2 in solution
T1 construct: also called hIL-2; recombinant IL-2 (Acro Biosystems, IL2-H4113)
Description: (§1) Antibody A, B or C were immobilized on amine reactive (2nd Generation) sensors (ForteBio, 18-5092). Association (600s) and dissociation (900s) of a dilution series of recombinant IL-2 (Acro Biosystems, IL2-H4113) were measured on the antibody-coated biosensors on an Octet-System (Octet RED, ForteBio). K_D values were obtained by fitting the kinetics data with the ForteBio Data Analysis Software (8.2).

Recombinant human IL-2 [2] = target: T1, Recombinant human IL-2; assay: ELISA, recombinant human IL-2 coated, antibody titrated, anti-human IgG-Peroxidase
Description: Recombinant human IL-2 was coated on Maxisorp ELISA plates (Invitrogen, 44-2404-21) at 5 µg/ml, 4° C. over night. After 2 hours blocking, antibodies A, B and C were incubated in a serial dilution starting from 10 µg/ml in assay buffer. The antibodies were detected with anti-human IgG-Peroxidase (Sigma, A0170). After addition and blockade of the […] substrate, absorption was read ($A450$-$A570$ at plate reader, Spectramax iD3). $EC50$ values were obtained by plotting Absorbance vs. log(Concentration).

Recombinant human IL-2 [3] = target: T1, Recombinant human IL-2; assay: Octet BLI, antibody immobilised on amine reactive sensors, IL-2 in solution; Octet, free antibody B against recombinant hIL-2: weak binding, KD 269.8 nM
Description: as §1

T1 sequence (P60568 21-153 limits assumed): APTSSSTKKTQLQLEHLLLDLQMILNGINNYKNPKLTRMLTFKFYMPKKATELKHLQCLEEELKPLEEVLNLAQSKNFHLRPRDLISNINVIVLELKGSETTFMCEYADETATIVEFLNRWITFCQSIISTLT

Row | Kd (Recombinant human IL-2 [1]) [nM] | EC50 (Recombinant human IL-2 [2]) [nM] | Kd (Recombinant human IL-2 [3]) [nM] | Binder
1 | 2.1 | 0.37 | – | Antibody A (antibody, human IgG1, kappa, N297A, V domains shown, Humanized full-length human IgG1 kappa; The printed heavy chain carries the N297A Fc) VH: EVQLVQSGAEVKKPGESLKISCKGSGYAFTNYLIEWVRQMPGKGLEWMGVINPGSGGTNYNEKFKGQVTISADKSISTAYLQWSSLKASDTAMYYCARWRGEGYYAYFDVWGQGTTVTVSS VL: AIRLTQSPSSFSASTGDRVTITCKASQSVDYQGDSYMNWYQQKPGKAPKLLIYAASNLESGVPSRFSGSGSGTDFTLTISSLQSEDFATYYCQQSNEDPYTFGGGTKVEIKR
2 | > 1000 | – | – | Antibody C (antibody, human IgG1, kappa, V domains shown, Control antibody, full-length human IgG1 kappa) VH: EVQLVQSGAEVKKPGESLKISCKGSGYSFTNFYIHWVRQAPGQRLEWMGSIYPNYGDTAYNQKFKDRFVFSLDTSVSTAYLQISSLKAEDTAVYYCARGYSYAMDYWGQGTTVTVSS VL: DIQMTQSPSSVSASVGDRVTITCSASQGISGDLNWYQQKPGKAPKLLIYHTSSLHSGVPSRFSGSGSGTDFTLTISSLQPEDFATYYCQYYSKDLLTFGGGTKLEIKR
3 | – | – | 270 | Antibody B (antibody, human IgG1, kappa, V domains shown, Full-length human IgG1 kappa) VH: QVQLVESGGGVVQPGRSLRLSCAASGYTFSSYLIEWVRQAPGKGLEWVAVINPGSGGTNYADSVKGRFTISADKSKNTAYLQMNSLRAEDTAVYYCARWRGDGYYAYFDVWGQGTTVTVSS VL: EIVLTQSPATLSVSPGERATLSCRASQSVSYDGDSYMNWYQQKPGQAPRLLIYAASNLASGIPARFSGSGSGTEFTLTISSLQSEDAAVYYCQQSNEDPYTFGGGTKVEIKR
